# Measurements reported in a protein production outcome set (Wang et al. 2014).
# Experiment: label from the status in PepcDB records
row,Sequence,protein production
1,MNEVKESLRSIEQKYKLFQQQQFTFIAALEHCRENAHDKIRPISSIEQVQSYMEHYCNNSTHRRILIMFMDICSELSKLCQHFEALHSGTPVTNSLLEKCKTLVSQSNDLSSLRAKYPHEVVNHLSCDEARNHYGGVVSLIPIVLDFMKEWIAHSEKLPRKVLQHGTT,failed
2,MNFEAIKSIYLFEMARTRRTLLQSVVSPVISTSLYFIVFGTAIGSRIQEVGGVSYGAFITPGLIMLTLLTQCISNGSFGIYFPKFTGTVYEILSAPVSMTEIVAGYVGAAATKGLMIGTIILITASFFVDITIAHPFMMVLFFVLTAVSFSLFGFIIGIWATNFEQLNLIPMLVVPPLTFLGGSFYSIDMLPPFWQTVSHFNPVLYLISGFRWSFYEIADVNPVISLAMITLFLAVCLGVVAWMFKTGYRLRN,failed
3,MNFLPPTPPPPDPVGWKLPRGSLARHLVLRLMPPLLLLVLLDLAATWVITHKIDMSIWMLEDFFWLMVVGQIVLIALFTGVIIRGVRSGLRSVNHLAEEIRQRSIDDMQPMEVAGLPAEIAPLVTHINDLLGRLDASLAAQRRFIGHAAHQLRTPLSGLRLESELMLARPLPEDVRMRAERIKAVSDRMIRLGQQLLVMARADPDARPQDRFIRLDLCEWVRASGAEWIPRVRAAQAEIDLVAPEQPVWIDGDPLLLDEMLGNLIDNALRYGKPRGRICLTIDVNPPALIIEDDGPGISPQERDSVFEAFYRAPDAKAGGSGLGLAIVREIAHAHGAWWKLSSRPEYAGTRLSVVFPGPRIGTQLTRQERAS,failed
4,MNFNWFLMLFLFNFSVLLGSDTTALGHYQRANEYYLSKRYYDAIDELVEAIKINPNYYEAYKFIASIYYSLKIYTQAQFFIEKASKMSNEDTEYKILYANILLKNDKIDQAKKIYSEVLVKQRNNIDALVGLASIFEKNGLFIAAANYYLSILDYSQNNYSAFEHLIDIYQRLGMHDKIRHLINKVRVNFLSFPDFHKRVAEFYISINNLGLAEKYALNYLALIESSYKDFGVVDAYRLLALVYLHEFKYEDAIEALQKAILVNKDSDELYYLLGYSYLRFGDIEKAILNLERAKNLKKDLEFYNIALEESFFASNFRNFLKNNSNARISKHYENEGLKAFKSLNLNKALFNAKNAVDIWPDNDSARFLLSKIYKLMNLDIMAYEQLFYLAKQRNSTDSRILDFYDVVSFDVRKSLFYKYGYKSIADFNKLYDDRVVYKMAIFTQSENKFFGANDLILRYAERVLERNLNMEIVNYNFDYNKNRDYLINNFSEGFSYSRNNNLDLFLIFDFKADILKNTATLVVNIFSGKTGIKLVSFSYDVGGVNYLSNALNSLSKDFHDYLPKKGKILQIKNDDALINLGQVNGVVKGDVFLILKEGALNSDTRDSGFIVYKKSDILGEILIEDISDYISRGIVKSSTFLKDYVQEGATVLIKR,failed
5,MNFPISTIRIGGWVVVAKNPDDIVAKFYFAKKKLIWEFLFGEPETNTLRLKRKIEIQWNDVSSFEESISSRDETGILKIELKKRPTFFIETNPQAGKHTQWKQLDHDFTGDHASNYRRHTLHFPPGVLQKNLEKLVTDSFWSKLYEVPFPVHESRYFDSGFENNSSRNSHSHTVGFNVNNGPQHHFSQGIGGVGVGEGNFSMANGGWQRNSYSPVNSLNYNTANEFFGMQATPPSSQVVNEHYNTQNDFTGSQFGYHMNQDEIQKILESQAYAVPDTQTKLMSSAMNNVPKYPQAGSCLESMLFWYEHRRRFQQ,failed
6,MNFPTQTHAIDFDTAELQRLGFRNRPDAVLPPPSLPELVYQLGRQLQTSLEAERILTLFFQGVQRFLPLSGLVYRHIESDLHLRLGEMSSDSASFHLRHEGKCIGELEFQGAKPFDTRQLSDLESLLVCLVYPLLNALLYRIATQTALRDPLTSTGNRIAMDQGLAREIEISSRHKQPLSLLMLDIDHFKKVNDEYGHHTGDDVLKTVAQSLKAQLRNIDRVFRYGGEEFVVILSNTGATAAELIGERLRQAVRNLEFRELDPALTMTVSLGCSTLLPTETADSLLRRADNALYVAKREGRNRLAMAS,failed
7,MNFQRFKAIVKKEVIQLKRDRASFGIAIMMPIVMIFLFGYAVNTELSNISMTVLDQSNSIESRELIQSFQNTGYFKVVSRVKSIEEVREKMDKGKVHAAIVIPPDFSNKLQMREESNVQLLVDGSDPTTARTAFSSGVVSGQQYGMKKLQGFGEKTSSKFQEGGVNVNTRVLYNPNLRNQNFTIPGLIGLIMQNITILLTAFALVRERERGTIEQLTVSPLKAGEIILGKLVPYIFIGYIDFLFSLVLGIKWFNVPINGSIPLLLLLGFAFVICALAIGILISTISKTQLQAMQLTILVLLPSILLSGFVFPREAMPKVIQLIGNVLPLTYFLNILRGIITKGVGVQYLSRDIAAMCCLAVILLTLSIVRFRAKPYNS,failed
8,MNGASLCNSVLLHSHSLSRFQSSSSSCSVYLISSARTTSKYISISHRIRQSFREVIEKRSNGFCSFAVNKRRSGDSVIVESDDDDEEDDEDWGEFDGEDEGEEEEEDEGEFLPMDKMKKWLEKKPRGFGLGKKYETLIEDKLLDEIEQSWKAQAANLNKLKNDPLKSQQLKRDDNLLKGTGETQIGFRVRVTNLPKKKNVHRDLKVAFKEVSGVLSITPAVSGNKKTKDPVCKGFAHVDFKTEIDANRFVKQFTGQSLAFGKVIKQIKCQVVEFTSDDSVSKEVYLDNGFKVQKLPYSGLEGDSSADVVEEEVLLGSGEESDDSEEEVDEREVEDDERNHISSSIESSPIEMTRDSNTKLKFEKQVVKREIREHEELETPLVSFQVNKSEEAAAETHLDDEQSEEAVAETLLNDELDGDDEEEVAEDNLEPLNSSLSSSEENRVDRIRRLEQKLLGKEKLLGGGVGFDKPEAKPARVEGKKKEKKKKTKILVKGQAKKGTKIEIPGSSKR,failed
9,MNGMLLSRIKKKAMELAEDLKLVDFSFGLPYTWVLVEGIEGRALGVAMTLPEEVQRYTNSIEEPSLLEFIDKADSLNIIERTLGVAAINAVSQYYIDLREAKWIDVTELIQQDEIKRIAIIGNMPPVVRTLKEKYEVYVFERNMKLWDRDTYSDTLEYHILPEVDGIIASASCIVNGTLDMILDRAKKAKLIVITGPTGQLLPEFLKGTKVTHLASMKVTNIEKALVKLKLGSFKGFESESIKYVIEV,not failed
10,MNGTALNWLELCRTVGPCLRPGGTALTDRALEVCNLSADSLIADVGCGAGGTLYHLEQIGFRRLVGLDPSETLLGDAAPRLETARLIRGEAATIPLRSATVDLLLCECVLSVLPGRSAPLREFARVVKDGGYLVVSDVFSTAGDEATGQAGGLLTRKELLAAVAGNGFTLLRWETHDRLLKEFAVRMILAGECLPDAWKGGTERKGEAARGGLGYFLMVARKAEDPLP,failed
11,MNHHHHNHHGEAGFKRKVDYLDRPERSEVLAPEEFLQRIPMEKTASILDLGAGTGFLTIPAAKKVENTVFALDLDTKMLELIETKAKTAELANVKTLEASMDDIPLETSSVDVVLASLVLHEADSLADVLREVSRVVKTGGYFASLEFDTKGTDLKGPPMEIQISAEKLKEELAGFGFEVVQNWELDEGMYVSIAEKKE,failed
12,MNHNYVEVKYPAIFRDEGTYWDVRFPDVPAAQTFGASVQVAADNAANALAIALFEQSLPPASDPQYWRLASTEFVVWITMADVQFGPGADTPEPMN,not failed
13,MNHSIPTLRTERLTLRPLAMADFPAYRDFMASPRSTGVGGPYDLPSTWGVFCHDLANWHFFGHGALMIDLGETGECIGQIGINHGPLFPEKELGWLLYEGHEGRGYAAEAAVALRDWAFETLNLPTLVSYVSPQNRKSAAVAERIGGTLDPLAPRSDPEDLVYRYHQVKTA,not failed
14,MNHTLQFPKAPEHLLQALNEVIPKCKLMAQQLPETAISLWLIPPVFPTERLDDDIIRRIWSDTPYWIFCWASGLAMAQWLLAEPHHVKDKVVLDFGAGSGVVAIAAKMAGAKRVICCDIDETSLNACRENALLNNVELEYLNDLYLSESVDILLAADVLYDQSNRFFLDEFLKFAPEVWVADSRVKNFSHPGYIKIDERSATTWPDLDEAKEFRNVSFYKTLEHHHHHH,failed
15,MNIAFTFKNFEPSEHLKKYARRRFEKLARFVGKSANLELQVALSLDKFRQKAEVQLVGDSINIAAVEQSEDMYATIDLVLDKLEAQLKKHVSRVKERRRSARTNANIDVFTYHTEGEGEDRAIVGTDQFVPKPLHVDEAAMQLDALDYEFLVFLNAESERINVIYRRRNGDFGLIDPVV,failed
16,MNIAISGASGFIGKHLTEYLTEAGHRVVPLGRPMFREGTSGHLIQALSHCDVIINLAGAPIGKRWTPEYKKELYDSRIKVTHCIIRAMDAVKTKPRLMISASAVGYYPEEGTFDEYTNTRGSGFLAELCYAWEKEARRCPSQTRLVITRFGIVLSPDGGAMEQMLRPLRITRVAGVIGPGTQPFPWIAIQDLCRAMEFIIRHEEASGVFNLVAPQQVSQYAFTQAMAARYHAWMKVVVPRWFFRMRYGEAASFLASGQNVRPTRLLEAGFRFAKPTIEDFFEGTDHAVVDRLDLHRYMGTWYEIARFDHRFERGLSEVTATYTLMPDGTVRVENRGCKHKKPYDVCKTAEGRAKIPDPSQPGKLKVSFFLSFYSDYYVLELDQDEYNYALIGSSSDKYLWILSRAPILPEEIKKKLLDAATRRGYDVKKLIWVEQREKKIM,failed
17,MNIALARSVVGERLRLLAERMGLVAKRLQDMSQDDTPGRCTPEHCAIQVDSDDEIGDGARAFNQLIQALSLSIETETAVRTFTEMLVSELDVHQLTEQALALLLQHTGADGGAILIEVDGEIRVAASQGIGSAHTLANNDRVRSALRTERRHRVQLPEDLVVDGMLAQFRPKEVIIDPVRHKEVVLGAVVLASGQGFSAEDRNRLDVFERGLALALHNALLYDRLQTLAALDPLTGAYNRRFGMARLREEFRRAVRLNLPLGILMFDIDYFKRINDTYGHLAGDRVLSRVAKTARSVLREGDVLIRYGGEEFIAVLPAASLHDLEYVGERLRHQVDDLMLMDGDQSMHVTVSIGAAAYPDTDVEDETALVDRADKALYAAKSDGRNRLVIS,failed
18,MNIAVQTLRALAETIVTPSYLLTIIVIMIMFYMKNRRISFMQRMIIGQNIESPFELTLSQITLSIIAGALGSVILSYLGVVFKDNSAIVLLFLISVILMFAGSRFLCFSYSGSILGIISIVIQFLSVNKIADVSSIKFLEIDVVMIMSLVGVLHIVEGIIVMIDGKSGAIPVFTNREDKIIGGFAFKRYWVLPITLLFLLNNADLNGTVNVATPDSWPIIRTAFTVIGKSAVISFMMFYGIIGYKSVTFTKSKRKKTFMSGMAIALYGAVLLGLSQVLKHNLEQQIILCLLAPLLHETMLRLEAYSEVKGKPKFVSGEDGVMVLDVAPNSQAYEMGIKSGDLLLEINDTKIFSEEDITRSIQNMSKYMWFKIKDVQGKLNEISYDKFDRNKKLGAIFVPKGMPKESKIVKFEHKSFDDILDNVNKEDENKKDQK,failed
19,MNIEEFTSGLAEKGISLSPRQLEQFELYYDMLVEWNEKINLTSITEKKEVYLKHFYDSITAAFYVDFNQVNTICDVGAGAGFPSLPIKICFPHLHVTIVDSLNKRITFLEKLSEALQLENTTFCHDRAETFGQRKDVRESYDIVTARAVARLSVLSELCLPLVKKNGLFVALKAASAEEELNAGKKAITTLGGELENIHSFKLPIEESDRNIMVIRKIKNTPKKYPRKPGTPNKSPIEG,not failed
20,MNIEIKDTLISEEQLQEKVKELALQIERDFEGEEIVVIAVLKGSFVFAADLIRHIKNDVTIDFISASSYGNQTETTGKVKLLKDIDVNITGKNVIVVEDIIDSGLTLHFLKDHFFMHKPKALKFCTLLDKPERRKVDLTAEYVGFQIPDEFIVGYGIDCAEKYRNLPFIASVVTEESYNLKSR,not failed
